Test results from article PMC5595714, “Activation of secondary cell wall biosynthesis by miR319‐targeted TCP4 transcription factor”.

T1: TCP4-HIS (UniProt Q8LPR5 1-420)
T1 sequence: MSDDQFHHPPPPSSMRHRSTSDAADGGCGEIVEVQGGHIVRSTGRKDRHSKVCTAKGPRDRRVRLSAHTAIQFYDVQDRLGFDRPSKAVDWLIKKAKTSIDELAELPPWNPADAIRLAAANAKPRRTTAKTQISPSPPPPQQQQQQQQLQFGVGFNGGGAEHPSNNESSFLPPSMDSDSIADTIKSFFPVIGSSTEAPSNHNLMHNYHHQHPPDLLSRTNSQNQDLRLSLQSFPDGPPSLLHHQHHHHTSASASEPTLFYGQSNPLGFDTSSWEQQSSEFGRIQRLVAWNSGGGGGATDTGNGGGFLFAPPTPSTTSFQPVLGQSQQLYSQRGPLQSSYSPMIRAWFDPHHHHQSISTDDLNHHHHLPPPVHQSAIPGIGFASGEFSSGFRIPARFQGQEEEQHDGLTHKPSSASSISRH

T2: rTCP4-HIS (UniProt Q8LPR5 1-420)
T2 sequence: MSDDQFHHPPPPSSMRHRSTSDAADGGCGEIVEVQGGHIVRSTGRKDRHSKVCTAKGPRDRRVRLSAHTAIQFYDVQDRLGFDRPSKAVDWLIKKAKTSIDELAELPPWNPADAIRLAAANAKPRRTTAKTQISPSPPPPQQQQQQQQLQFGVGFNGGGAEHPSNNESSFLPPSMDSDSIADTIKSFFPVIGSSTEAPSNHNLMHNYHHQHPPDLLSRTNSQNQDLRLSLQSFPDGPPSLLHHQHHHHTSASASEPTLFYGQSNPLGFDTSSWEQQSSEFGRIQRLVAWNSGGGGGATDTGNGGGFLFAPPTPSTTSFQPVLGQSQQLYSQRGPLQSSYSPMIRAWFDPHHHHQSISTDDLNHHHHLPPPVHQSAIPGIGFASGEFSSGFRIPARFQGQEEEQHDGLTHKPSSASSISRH


What was measured:
TCP4-HIS [1] = target: T1, TCP4-HIS; assay: EMSA; 20 mM HEPES-KOH pH 7.8, 100 mM KCl, 1 mM EDTA, 0.1% BSA, 10 ng herring sperm DNA, 10% glycerol; 100 fmol probe, 1 ug protein, 20 uL, 30 min, room temperature; settings: protein: recombinant; tags: His (pET32a fusion); chain copies: 2; label: biotin 3'; blunt
rTCP4-HIS = target: T2, rTCP4-HIS; assay: as above; settings: protein: recombinant; tags: His (pET32a fusion); chain copies: 2; label: biotin 3'; blunt
TCP4-HIS [2] = target: T1, TCP4-HIS; assay: competition; 10x and 50x unlabeled probe against N1, dose-dependent; 20 mM HEPES-KOH pH 7.8, 100 mM KCl, 1 mM EDTA, 0.1% BSA, 10 ng herring sperm DNA, 10% glycerol; 100 fmol probe, 1 ug protein, 20 uL, 30 min, room temperature; settings: protein: recombinant; tags: His (pET32a fusion); chain copies: 2; blunt

Binder | binding result (TCP4-HIS [1]) | binding result (rTCP4-HIS) | binding result (TCP4-HIS [2])
VND7 promoter probe (dsDNA) DNA 1: ATTGTTGGGTGGTCCCATAAAAAT DNA 2: ATTTTTATGGGACCACCCAACAAT | binds | binds | 
VND7 promoter cold probe (dsDNA) DNA 1: ATTGTTGGGTGGTCCCATAAAAAT DNA 2: ATTTTTATGGGACCACCCAACAAT |  |  | binds
